{"source": "paper PMC9491720", "about": "(Science Advances, 2022)", "binders": {"B1": {"name": "recombinant His-tagged Smad7 (natural protein)", "chain": "MFRTKRSALVRRLWRSRAPGGEDEEEGAGGGGGGGELRGEGATDSRAHGAGGGGPGRAGCCLGKAVRGAKGHHHPHPPAAGAGAAGGAEADLKALTHSVLKKLKERQLELLLQAVESRGGTRTACLLLPGRLDCRLGPGAPAGAQPAQPPSSYSLPLLLCKVFRWPDLRHSSEVKRLCCCESYGKINPELVCCNPHHLSRLCELESPPPPYSRYPMDFLKPTADCPDAVPSSAETGGTNYLAPGGLSDSQLLLEPGDRSHWCVVAYWEEKTRVGRLYCVQEPSLDIFYDLPQGNGFCLGQLNSDNKSQLVQKVRSKIGCGIQLTREVDGVWVYNRSSYPIFIKSATLDNPDSRTLLVHKVFPGFSIKAFDYEKAYSLQRPNDHEFMQQPWTGFTVQISFVKGWGQCYTRQFISSCPCWLEVIFNSR"}}, "target": "Flag-tagged PKM2 (pyruvate kinase M2) (human, UniProt P14618-1 1-531, labeled with fluorescence (in the MST assay only))", "sequence (P14618 whole entry)": "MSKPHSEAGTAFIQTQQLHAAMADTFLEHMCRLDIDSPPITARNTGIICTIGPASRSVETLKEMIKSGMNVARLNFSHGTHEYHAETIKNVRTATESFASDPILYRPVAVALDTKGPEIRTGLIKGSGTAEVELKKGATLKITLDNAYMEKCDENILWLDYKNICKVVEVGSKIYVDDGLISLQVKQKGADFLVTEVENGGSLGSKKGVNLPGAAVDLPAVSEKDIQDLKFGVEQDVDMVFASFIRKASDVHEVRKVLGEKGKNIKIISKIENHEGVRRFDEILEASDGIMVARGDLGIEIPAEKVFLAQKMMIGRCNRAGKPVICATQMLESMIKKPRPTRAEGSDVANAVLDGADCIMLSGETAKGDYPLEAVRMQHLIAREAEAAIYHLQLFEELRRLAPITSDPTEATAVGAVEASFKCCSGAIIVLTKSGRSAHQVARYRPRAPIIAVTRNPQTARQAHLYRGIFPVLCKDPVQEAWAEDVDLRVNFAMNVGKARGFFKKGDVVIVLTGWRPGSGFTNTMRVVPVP", "assay": "MST", "data": [{"binder": "B1", "values": [{"measurement": "Kd", "result": 0.346, "unit": "µM"}]}]}
